Results published in US20220370630A1, “TRANSMUCOSAL DELIVERY SYSTEM FOR PHARMACEUTICAL ACTIVE INGREDIENT TO SUBMUCOSAL TISSUE OF BLADDER” (SEIKAGAKU CORPORATION, priority 2019, published 2022).

Tests used:
[1] = Release test: release ratio of API from the derivative in phosphate buffer solution pH 7.4 at 36° C., HPLC; assay type: physicochemical; conditions: phosphate buffer pH 7.4, 36° C.; for Release ratio of API: 5 mg/10 mL; for Release rate: slope of release ratio against time
Experimental: In Examples pertaining to a release test, a release ratio of a pharmaceutical active ingredient (API) from a chondroitin sulfate derivative and a hyaluronic acid derivative, each of which was not fluorescently labeled was evaluated as follows. […] The release ratio was calculated based on the ratio of peak areas of HPLC corresponding to the amount of API in the derivative and the amount of released API using a size-exclusion chromatography column (TSKgel α, manufactured by Tosoh Corporation). Release ratio (%)=peak area of released API/(peak area of API in each derivative+peak area of released API)×100 Also with respect to the hyaluronic acid derivatives of Comparative Examples 2 to 3, evaluation was performed in the same manner as for Examples.

[2] = Evaluation using rat 2: concentration of TA in the bladder after administration to the lumen of the bladder, LC/MS/MS; assay type: in vivo; conditions: bladder homogenate on day 7 after administration; TA dose 0.8 mg/animal into the bladder; hydrochloric acid-pretreated rat; read-out: Concentration of API (TA)
Experimental: In both Example and Comparative Example, the dose of TA was set to 0.8 mg/animal.
The pretreatment was performed in the same manner as in the evaluation 1.
One day after the pretreatment, 0.2 mL of each test substance was transurethrally administered into the bladder using a catheter (PE50) under isoflurane inhalation anesthesia and allowed to stay there for 30 minutes.
Seven days after administering the test substance, the animal was laparotomized under isoflurane inhalation anesthesia and exsanguinated and euthanized by cutting the abdominal aorta, and then, the bladder was collected. The bladder was homogenized in a mixed solution of methanol/buffer solution (10 mmol/L ammonium formate buffer solution (pH 6.0):methanol=3:2 (v/v)), and a measurement sample was prepared so that the tissue concentration was 0.05 g/mL.
Subsequently, the amount of TA in the measurement sample was quantitatively determined by an LC/MS/MS analysis under the following conditions using triamcinolone-6-d1 acetonide-d6 as an internal standard substance.

Row | Molecule | Release ratio of API ([1]; elapsed time 0 days) [%] | Release ratio of API ([1]; elapsed time 1 day) [%] | Release ratio of API ([1]; elapsed time 2 days) [%] | Release ratio of API ([1]; elapsed time 3 days) [%] | Release ratio of API ([1]; elapsed time 4 days) [%] | Release ratio of API ([1]; elapsed time 5 days) [%] | Release ratio of API ([1]; elapsed time 6 days) [%] | Release ratio of API ([1]; elapsed time 7 days) [%] | Release rate [1] [%/day] | Release of API (result in words) ([1]; 1 week) | concentration at 7 days [2] [ng/g]
1 | 2-Aminoethyl-Dehydrocholate-Introduced CS [CS-DEH-conjugate] | 0.45 | 0.53 | 0.52 | 0.66 | 0.65 | 0.78 | 1.29 | 1.42 | 0.14 |  | 
2 | 2-Aminoethyl-Diclofenac-Introduced CS [CS-DIC-conjugate] | 0.00 | 0.95 | 2.06 | 3.13 | 4.11 | 5.40 | 6.55 | 7.62 | 1.10 |  | 
3 | 2-Aminoethyl-Probenecid-Introduced CS [CS-PRO-conjugate] | 0.31 | 0.83 | 1.43 | 2.13 | 2.91 | 3.63 | 4.56 | 5.29 | 0.72 |  | 
4 | 3-Aminopropyl Cinnamate-Introduced HA [HA-CIN-conjugate, reference compound] | 0.00 | 0.00 | 0.00 | 0.00 | 0.00 | 0.00 | 0.00 | 0.00 | 0.00 | release of cinnamic acid was not observed | 
5 | CC1(C)O[C@@H]2C[C@H]3[C@@H]4CCC5=CC(=O)C=C[C@]5(C)[C@@]4(F)[C@@H](O)C[C@]3(C)[C@]2(C(=O)CO)O1 [TA, triamcinolone acetonide] |  |  |  |  |  |  |  |  |  |  | 4.09
6 | β-alanyl-hydroxyzine-introduced CS [CS-HYD-conjugate] | 0.00 | 0.65 | 1.48 | 2.38 | 3.35 | 4.30 | 5.24 | 6.05 | 0.89 |  | 
